Patent publication US20120142585A1 (TEMPLE UNIVERSITY OF THE C0MMONWEALTH SYSTEM OF HIGHER …, published 2012)
Where no end group is shown, it is not given here. [ ]: non-standard residue; d: D form. NMeR = CN[C@@H](CCCNC(=N)N)C(=O)O; aThr = C[C@H](O)[C@H](N)C(=O)O; Nva = CCC[C@H](N)C(=O)O; Ahx = NCCCCCC(=O)O; βAla = NCCC(=O)O

B1: peptide of amino acid sequence Glu-Nva-Val-Ala-Leu-Ser-Arg-AcpNH2 [SEQ ID NO:51] (peptide)
peptide: E[Nva]VALSR[Ahx]-NH2
modifications: N-terminus assumed
SMILES: CCC[C@H](NC(=O)[C@@H](N)CCC(=O)O)C(=O)N[C@H](C(=O)N[C@@H](C)C(=O)N[C@@H](CC(C)C)C(=O)N[C@@H](CO)C(=O)N[C@@H](CCCNC(=N)N)C(=O)NCCCCCC(N)=O)C(C)C
B2: peptide of amino acid sequence Thr-Glu-Nva-Val-Ala-Leu-Ser-Arg-AcpNH2 [SEQ ID NO:4] (peptide)
peptide: TE[Nva]VALSR[Ahx]-NH2
modifications: N-terminus assumed
SMILES: CCC[C@H](NC(=O)[C@H](CCC(=O)O)NC(=O)[C@@H](N)[C@@H](C)O)C(=O)N[C@H](C(=O)N[C@@H](C)C(=O)N[C@@H](CC(C)C)C(=O)N[C@@H](CO)C(=O)N[C@@H](CCCNC(=N)N)C(=O)NCCCCCC(N)=O)C(C)C
B3: peptide of amino acid sequence alloThr-Glu-Nva-Val-Ala-Leu-Ser-Arg-AcpNH2 [SEQ ID NO:49] (peptide)
peptide: [aThr]E[Nva]VALSR[Ahx]-NH2
modifications: N-terminus assumed
SMILES: CCC[C@H](NC(=O)[C@H](CCC(=O)O)NC(=O)[C@@H](N)[C@H](C)O)C(=O)N[C@H](C(=O)N[C@@H](C)C(=O)N[C@@H](CC(C)C)C(=O)N[C@@H](CO)C(=O)N[C@@H](CCCNC(=N)N)C(=O)NCCCCCC(N)=O)C(C)C
B4: peptide of amino acid sequence Thr-Glu-Nva-Nva-Ala-Leu-Ser-Arg-NvaNH2 [SEQ ID NO:47] (peptide)
peptide: TE[Nva][Nva]ALSR[Nva]-NH2
modifications: N-terminus assumed
SMILES: CCC[C@H](NC(=O)[C@H](CCCNC(=N)N)NC(=O)[C@H](CO)NC(=O)[C@H](CC(C)C)NC(=O)[C@H](C)NC(=O)[C@H](CCC)NC(=O)[C@H](CCC)NC(=O)[C@H](CCC(=O)O)NC(=O)[C@@H](N)[C@@H](C)O)C(N)=O

How the values were obtained:
[1] = target: T1, leptin receptor (ObR) naturally expressed on MCF-7, LN229 and LN18 cells (human); test: cell-based or functional assay
[2] = target: T1, leptin receptor (ObR) naturally …; test: cell-based or functional assay; remark: listed apart in the source

Binder	EC50, proliferation of ObR-positive cancer cells in the absence of leptin [1] [µM]	IC50, proliferation of ObR-positive cancer cells in the presence of leptin (6 nM) [1] [nM]	IC100, proliferation of ObR-positive cancer cells in the presence of leptin (6 nM) [1] [nM]	IC50, proliferation and XTT metabolic activity assays, LN229 and MCF-7 cells with leptin [2] [nM]
B1	> 0.5	50	100	–
[dS]E[Nva]VALS[NMeR][βAla]-NH2 [peptide of amino acid sequence (D)-Ser-Glu-Nva-Val-Ala-Leu-Ser-N-MeArg-bAlaNH2 [SEQ ID NO:6]]	> 1	0.2	< 1	–
B2	> 1	5	50	2 to 3
B3	> 1	0.2	5	–
B4	> 1	1000	–	–
